Laboratory results reported in article PMC5895741, “Quantitative characterization of all single amino acid variants of a viral capsid-based drug delivery vehicle” (Nature Communications, 2018).

Biological target: the molecule itself
Test: SEC; in vitro acid screen of purified VLPs; HPLC SEC peak height relative to pH 7.3 (normalized acid tolerance, n = 3)

B1: MS2 bacteriophage coat protein CP[T71H/E76C] (natural protein)
chain: ASNFTQFVLVDNGGTGDVTVAPSNFANGVAEWISSNSRSQAYKVTCSVRQSSAQNRKYTIKVEVPKVATQHVGGVCLPVAAWRSYLNMELTIPIFATNSDCELIVKAMQGLLKDGNPIPSAIAANSGIY
notes: MS2 bacteriophage coat protein (MS2 CP); also called CP[T71/E76C]; double mutant
B1: binds.
